The results in this text go back to paper PMC3978581.

Experiment [1] deals with Human prolactin receptor, endogenous on human breast cancer cell lines (human (endogenous in T47D, SKBR3, MDA-MB-468, MCF-7, BT474)) (UniProt P16471).
For experiment [2] the target is unchanged. This is another data set of the same source.

UniProt P16471, sequence (P16471 25-622, stated change not applied): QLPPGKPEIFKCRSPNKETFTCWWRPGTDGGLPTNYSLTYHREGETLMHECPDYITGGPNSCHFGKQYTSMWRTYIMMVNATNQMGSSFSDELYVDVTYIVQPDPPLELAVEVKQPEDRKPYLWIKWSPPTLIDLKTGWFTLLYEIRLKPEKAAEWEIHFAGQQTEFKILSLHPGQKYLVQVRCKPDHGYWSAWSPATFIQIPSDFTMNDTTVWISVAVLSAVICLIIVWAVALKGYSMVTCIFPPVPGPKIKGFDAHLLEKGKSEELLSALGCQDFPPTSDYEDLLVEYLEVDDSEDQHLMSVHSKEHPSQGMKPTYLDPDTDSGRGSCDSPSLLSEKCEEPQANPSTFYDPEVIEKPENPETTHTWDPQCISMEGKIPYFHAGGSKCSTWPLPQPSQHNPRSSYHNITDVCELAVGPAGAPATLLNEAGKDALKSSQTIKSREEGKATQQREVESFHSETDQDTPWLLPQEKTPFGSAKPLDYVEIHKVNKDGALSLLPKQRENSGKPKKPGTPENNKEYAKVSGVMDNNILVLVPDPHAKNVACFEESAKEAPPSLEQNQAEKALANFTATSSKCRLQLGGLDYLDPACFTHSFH

As for “Recombinant human prolactin (from UniProt P01236 29-227) (ligand)”, in experiment [1], the EC50 of prolactin (1 to 100 nM, 15 min) for Stat5 tyrosine phosphorylation in SKBR3 cells at pHe 6.8 came out at 119 nM; the EC50 of prolactin (1 to 100 nM, 15 min) for Stat5 tyrosine phosphorylation in SKBR3 cells at pHe 7.4 worked out at 3.3 nM; the EC50 of prolactin (1 to 100 nM, 15 min) for Stat5 tyrosine phosphorylation in T47D cells at pHe 6.8 amounted to 37.8 nM; the EC50 of prolactin (1 to 100 nM, 15 min) for Stat5 tyrosine phosphorylation in T47D cells at pHe 7.4 came out at 3.7 nM. Besides, the loss of prolactin-stimulated Stat5 and Erk phosphorylation in T47D and SKBR3 cells over pHe 7.4 to 6.6; percent diminished at pHe 6.8 against pHe 7.4 in experiment [2] is > 80%.
